Assay results taken from the MegaScale stability set (Tsuboyama et al. 2023).

B1: EHEE_rd2_0191 (parent)
chain: TTEYTFTDDEEARRAIEELKKRGLTFRYEKHGTTWRVRVD

Variants of: B1
Assay: folding stability dG (cDNA display proteolysis); higher = more stable
Conditions: PBS, room temperature

| Variant | folding stability dG [kcal/mol] |
| --- | --- |
| TTEYVFTDDEEARRAIEELKKRGLTFRYEKHGTTWRVRVD | 2.54 |
| TTEYWFTDDEEARRAIEELKKRGLTFRYEKHGTTWRVRVD | 2.68 |
| TTEYYFTDDEEARRAIEELKKRGLTFRYEKHGTTWRVRVD | 2.39 |
| TTEYTGTDDEEARRAIEELKKRGLTFRYEKHGTTWRVRVD | -0.522 |
| TTEYTITDDEEARRAIEELKKRGLTFRYEKHGTTWRVRVD | 0.614 |
| TTEYTLTDDEEARRAIEELKKRGLTFRYEKHGTTWRVRVD | 0.168 |
| TTEYTMTDDEEARRAIEELKKRGLTFRYEKHGTTWRVRVD | -0.111 |
| TTEYTTTDDEEARRAIEELKKRGLTFRYEKHGTTWRVRVD | -0.433 |
| TTEYTWTDDEEARRAIEELKKRGLTFRYEKHGTTWRVRVD | 0.741 |
| TTEYTYTDDEEARRAIEELKKRGLTFRYEKHGTTWRVRVD | 1.96 |
| TTEYTFADDEEARRAIEELKKRGLTFRYEKHGTTWRVRVD | 1.63 |
| TTEYTFCDDEEARRAIEELKKRGLTFRYEKHGTTWRVRVD | 2.34 |
| TTEYTFDDDEEARRAIEELKKRGLTFRYEKHGTTWRVRVD | 1.97 |
| TTEYTFEDDEEARRAIEELKKRGLTFRYEKHGTTWRVRVD | 2.07 |
| TTEYTFFDDEEARRAIEELKKRGLTFRYEKHGTTWRVRVD | 2.22 |
| TTEYTFGDDEEARRAIEELKKRGLTFRYEKHGTTWRVRVD | 1.37 |
| TTEYTFHDDEEARRAIEELKKRGLTFRYEKHGTTWRVRVD | 2.13 |
| TTEYTFIDDEEARRAIEELKKRGLTFRYEKHGTTWRVRVD | 1.68 |
| TTEYTFKDDEEARRAIEELKKRGLTFRYEKHGTTWRVRVD | 1.62 |
| TTEYTFLDDEEARRAIEELKKRGLTFRYEKHGTTWRVRVD | 1.83 |
| TTEYTFMDDEEARRAIEELKKRGLTFRYEKHGTTWRVRVD | 1.82 |
| TTEYTFNDDEEARRAIEELKKRGLTFRYEKHGTTWRVRVD | 1.97 |
| TTEYTFPDDEEARRAIEELKKRGLTFRYEKHGTTWRVRVD | 0.677 |
| TTEYTFQDDEEARRAIEELKKRGLTFRYEKHGTTWRVRVD | 1.88 |
| TTEYTFRDDEEARRAIEELKKRGLTFRYEKHGTTWRVRVD | 1.59 |

| Variant | folding stability dG [kcal/mol] |
| --- | --- |
| TTEYTFSDDEEARRAIEELKKRGLTFRYEKHGTTWRVRVD | 1.75 |
| TTEYTFVDDEEARRAIEELKKRGLTFRYEKHGTTWRVRVD | 1.71 |
| TTEYTFWDDEEARRAIEELKKRGLTFRYEKHGTTWRVRVD | 1.89 |
| TTEYTFYDDEEARRAIEELKKRGLTFRYEKHGTTWRVRVD | 2.47 |
| TTEYTFTADEEARRAIEELKKRGLTFRYEKHGTTWRVRVD | 1.24 |
| TTEYTFTEDEEARRAIEELKKRGLTFRYEKHGTTWRVRVD | 1.29 |
| TTEYTFTFDEEARRAIEELKKRGLTFRYEKHGTTWRVRVD | 0.882 |
| TTEYTFTGDEEARRAIEELKKRGLTFRYEKHGTTWRVRVD | 1.33 |
| TTEYTFTHDEEARRAIEELKKRGLTFRYEKHGTTWRVRVD | 1.32 |
| TTEYTFTIDEEARRAIEELKKRGLTFRYEKHGTTWRVRVD | 1.2 |
| TTEYTFTKDEEARRAIEELKKRGLTFRYEKHGTTWRVRVD | 1.37 |
| TTEYTFTLDEEARRAIEELKKRGLTFRYEKHGTTWRVRVD | 1.08 |
| TTEYTFTMDEEARRAIEELKKRGLTFRYEKHGTTWRVRVD | 0.896 |
| TTEYTFTNDEEARRAIEELKKRGLTFRYEKHGTTWRVRVD | 2.41 |
| TTEYTFTQDEEARRAIEELKKRGLTFRYEKHGTTWRVRVD | 1.16 |
| TTEYTFTRDEEARRAIEELKKRGLTFRYEKHGTTWRVRVD | 1.39 |
| TTEYTFTSDEEARRAIEELKKRGLTFRYEKHGTTWRVRVD | 2.44 |
| TTEYTFTTDEEARRAIEELKKRGLTFRYEKHGTTWRVRVD | 2.29 |
| TTEYTFTVDEEARRAIEELKKRGLTFRYEKHGTTWRVRVD | 1.36 |
| TTEYTFTWDEEARRAIEELKKRGLTFRYEKHGTTWRVRVD | 0.65 |
| TTEYTFTYDEEARRAIEELKKRGLTFRYEKHGTTWRVRVD | 0.721 |
| TTEYTFTDAEEARRAIEELKKRGLTFRYEKHGTTWRVRVD | 2.15 |
| TTEYTFTDEEEARRAIEELKKRGLTFRYEKHGTTWRVRVD | 2.41 |
| TTEYTFTDFEEARRAIEELKKRGLTFRYEKHGTTWRVRVD | 2.33 |
| TTEYTFTDGEEARRAIEELKKRGLTFRYEKHGTTWRVRVD | 1.81 |

| Variant | folding stability dG [kcal/mol] |
| --- | --- |
| TTEYTFTDHEEARRAIEELKKRGLTFRYEKHGTTWRVRVD | 1.73 |
| TTEYTFTDIEEARRAIEELKKRGLTFRYEKHGTTWRVRVD | 2.08 |
| TTEYTFTDKEEARRAIEELKKRGLTFRYEKHGTTWRVRVD | 1.77 |
| TTEYTFTDLEEARRAIEELKKRGLTFRYEKHGTTWRVRVD | 1.91 |
| TTEYTFTDMEEARRAIEELKKRGLTFRYEKHGTTWRVRVD | 1.83 |
| TTEYTFTDNEEARRAIEELKKRGLTFRYEKHGTTWRVRVD | 1.63 |
| TTEYTFTDPEEARRAIEELKKRGLTFRYEKHGTTWRVRVD | 2.3 |
| TTEYTFTDQEEARRAIEELKKRGLTFRYEKHGTTWRVRVD | 1.8 |
| TTEYTFTDREEARRAIEELKKRGLTFRYEKHGTTWRVRVD | 1.92 |
| TTEYTFTDSEEARRAIEELKKRGLTFRYEKHGTTWRVRVD | 1.81 |
| TTEYTFTDTEEARRAIEELKKRGLTFRYEKHGTTWRVRVD | 1.3 |
| TTEYTFTDVEEARRAIEELKKRGLTFRYEKHGTTWRVRVD | 2 |
| TTEYTFTDWEEARRAIEELKKRGLTFRYEKHGTTWRVRVD | 3.27 |
| TTEYTFTDYEEARRAIEELKKRGLTFRYEKHGTTWRVRVD | 2.39 |
| TTEYTFTDDAEARRAIEELKKRGLTFRYEKHGTTWRVRVD | 2.09 |
| TTEYTFTDDDEARRAIEELKKRGLTFRYEKHGTTWRVRVD | 2.15 |
| TTEYTFTDDFEARRAIEELKKRGLTFRYEKHGTTWRVRVD | 1.98 |
| TTEYTFTDDGEARRAIEELKKRGLTFRYEKHGTTWRVRVD | 2.07 |
| TTEYTFTDDHEARRAIEELKKRGLTFRYEKHGTTWRVRVD | 1.93 |
| TTEYTFTDDIEARRAIEELKKRGLTFRYEKHGTTWRVRVD | 2 |
| TTEYTFTDDKEARRAIEELKKRGLTFRYEKHGTTWRVRVD | 1.98 |
| TTEYTFTDDLEARRAIEELKKRGLTFRYEKHGTTWRVRVD | 1.98 |
| TTEYTFTDDMEARRAIEELKKRGLTFRYEKHGTTWRVRVD | 1.96 |
| TTEYTFTDDNEARRAIEELKKRGLTFRYEKHGTTWRVRVD | 2.12 |
| TTEYTFTDDPEARRAIEELKKRGLTFRYEKHGTTWRVRVD | 0.527 |

| Variant | folding stability dG [kcal/mol] |
| --- | --- |
| TTEYTFTDDQEARRAIEELKKRGLTFRYEKHGTTWRVRVD | 1.95 |
| TTEYTFTDDREARRAIEELKKRGLTFRYEKHGTTWRVRVD | 1.99 |
| TTEYTFTDDSEARRAIEELKKRGLTFRYEKHGTTWRVRVD | 1.87 |
| TTEYTFTDDTEARRAIEELKKRGLTFRYEKHGTTWRVRVD | 2.02 |
| TTEYTFTDDVEARRAIEELKKRGLTFRYEKHGTTWRVRVD | 2.02 |
| TTEYTFTDDWEARRAIEELKKRGLTFRYEKHGTTWRVRVD | 1.93 |
| TTEYTFTDDYEARRAIEELKKRGLTFRYEKHGTTWRVRVD | 1.96 |
| TTEYTFTDDEAARRAIEELKKRGLTFRYEKHGTTWRVRVD | 2.16 |
| TTEYTFTDDECARRAIEELKKRGLTFRYEKHGTTWRVRVD | 2.14 |
| TTEYTFTDDEDARRAIEELKKRGLTFRYEKHGTTWRVRVD | 1.88 |
| TTEYTFTDDEFARRAIEELKKRGLTFRYEKHGTTWRVRVD | 1.37 |
| TTEYTFTDDEGARRAIEELKKRGLTFRYEKHGTTWRVRVD | 1.46 |
| TTEYTFTDDEHARRAIEELKKRGLTFRYEKHGTTWRVRVD | 1.77 |
| TTEYTFTDDEIARRAIEELKKRGLTFRYEKHGTTWRVRVD | 1.78 |
| TTEYTFTDDEKARRAIEELKKRGLTFRYEKHGTTWRVRVD | 1.73 |
| TTEYTFTDDELARRAIEELKKRGLTFRYEKHGTTWRVRVD | 1.84 |
| TTEYTFTDDEMARRAIEELKKRGLTFRYEKHGTTWRVRVD | 2.02 |
| TTEYTFTDDENARRAIEELKKRGLTFRYEKHGTTWRVRVD | 1.56 |
| TTEYTFTDDEPARRAIEELKKRGLTFRYEKHGTTWRVRVD | 0.754 |
| TTEYTFTDDEQARRAIEELKKRGLTFRYEKHGTTWRVRVD | 2.1 |
| TTEYTFTDDERARRAIEELKKRGLTFRYEKHGTTWRVRVD | 1.54 |
| TTEYTFTDDESARRAIEELKKRGLTFRYEKHGTTWRVRVD | 2.43 |
| TTEYTFTDDETARRAIEELKKRGLTFRYEKHGTTWRVRVD | 2.31 |
| TTEYTFTDDEVARRAIEELKKRGLTFRYEKHGTTWRVRVD | 1.85 |
| TTEYTFTDDEWARRAIEELKKRGLTFRYEKHGTTWRVRVD | 1.5 |

| Variant | folding stability dG [kcal/mol] |
| --- | --- |
| TTEYTFTDDEYARRAIEELKKRGLTFRYEKHGTTWRVRVD | 1.29 |
| TTEYTFTDDEECRRAIEELKKRGLTFRYEKHGTTWRVRVD | 2.13 |
| TTEYTFTDDEEFRRAIEELKKRGLTFRYEKHGTTWRVRVD | 3.56 |
| TTEYTFTDDEEGRRAIEELKKRGLTFRYEKHGTTWRVRVD | 1.04 |
| TTEYTFTDDEEHRRAIEELKKRGLTFRYEKHGTTWRVRVD | 0.073 |
| TTEYTFTDDEEIRRAIEELKKRGLTFRYEKHGTTWRVRVD | 0.942 |
| TTEYTFTDDEEKRRAIEELKKRGLTFRYEKHGTTWRVRVD | -0.512 |
| TTEYTFTDDEELRRAIEELKKRGLTFRYEKHGTTWRVRVD | 2.53 |
| TTEYTFTDDEEMRRAIEELKKRGLTFRYEKHGTTWRVRVD | 2.33 |
| TTEYTFTDDEEQRRAIEELKKRGLTFRYEKHGTTWRVRVD | -0.999 |
| TTEYTFTDDEERRRAIEELKKRGLTFRYEKHGTTWRVRVD | -0.372 |
| TTEYTFTDDEESRRAIEELKKRGLTFRYEKHGTTWRVRVD | -0.064 |
| TTEYTFTDDEETRRAIEELKKRGLTFRYEKHGTTWRVRVD | 0.424 |
| TTEYTFTDDEEVRRAIEELKKRGLTFRYEKHGTTWRVRVD | 1.47 |
| TTEYTFTDDEEWRRAIEELKKRGLTFRYEKHGTTWRVRVD | 1.63 |
| TTEYTFTDDEEYRRAIEELKKRGLTFRYEKHGTTWRVRVD | 1.66 |
| TTEYTFTDDEEAARAIEELKKRGLTFRYEKHGTTWRVRVD | 1.85 |
| TTEYTFTDDEEADRAIEELKKRGLTFRYEKHGTTWRVRVD | 0.9 |
| TTEYTFTDDEEAERAIEELKKRGLTFRYEKHGTTWRVRVD | 1.79 |
| TTEYTFTDDEEAFRAIEELKKRGLTFRYEKHGTTWRVRVD | 2.31 |
| TTEYTFTDDEEAGRAIEELKKRGLTFRYEKHGTTWRVRVD | 1.44 |
| TTEYTFTDDEEAHRAIEELKKRGLTFRYEKHGTTWRVRVD | 1.98 |
| TTEYTFTDDEEAIRAIEELKKRGLTFRYEKHGTTWRVRVD | 2.1 |
| TTEYTFTDDEEAKRAIEELKKRGLTFRYEKHGTTWRVRVD | 2.04 |
| TTEYTFTDDEEALRAIEELKKRGLTFRYEKHGTTWRVRVD | 2.3 |
